Square brackets hold non-standard residues; d marks the D form. Ends that are not written are not given here. Nle = CCCC[C@H](N)C(=O)O; Dab = NCC[C@H](N)C(=O)O
B1: Hel2H-Pen (peptide)
peptide: LDTRYLEQLH[Dab]LYRQIKIWFPNRR[Nle]KWKK-NH2
modifications: N-terminus assumed
SMILES: CCCC[C@H](NC(=O)[C@H](CCCNC(=N)N)NC(=O)[C@H](CCCNC(=N)N)NC(=O)[C@H](CC(N)=O)NC(=O)[C@@H]1CCCN1C(=O)[C@H](Cc1ccccc1)NC(=O)[C@H](Cc1c[nH]c2ccccc12)NC(=O)[C@@H](NC(=O)[C@H](CCCCN)NC(=O)[C@@H](NC(=O)[C@H](CCC(N)=O)NC(=O)[C@H](CCCNC(=N)N)NC(=O)[C@H](Cc1ccc(O)cc1)NC(=O)[C@H](CC(C)C)NC(=O)[C@H](CCN)NC(=O)[C@H](Cc1c[nH]cn1)NC(=O)[C@H](CC(C)C)NC(=O)[C@H](CCC(N)=O)NC(=O)[C@H](CCC(=O)O)NC(=O)[C@H](CC(C)C)NC(=O)[C@H](Cc1ccc(O)cc1)NC(=O)[C@H](CCCNC(=N)N)NC(=O)[C@@H](NC(=O)[C@H](CC(=O)O)NC(=O)[C@@H](N)CC(C)C)[C@@H](C)O)[C@@H](C)CC)[C@@H](C)CC)C(=O)N[C@@H](CCCCN)C(=O)N[C@@H](Cc1c[nH]c2ccccc12)C(=O)N[C@@H](CCCCN)C(=O)N[C@@H](CCCCN)C(N)=O
B2: Hel2A-Pen (peptide)
peptide: DTRYLEQLHKLYSRQIKIWFPNRR[Nle]KWKK-NH2
modifications: N-terminus assumed
SMILES: CCCC[C@H](NC(=O)[C@H](CCCNC(=N)N)NC(=O)[C@H](CCCNC(=N)N)NC(=O)[C@H](CC(N)=O)NC(=O)[C@@H]1CCCN1C(=O)[C@H](Cc1ccccc1)NC(=O)[C@H](Cc1c[nH]c2ccccc12)NC(=O)[C@@H](NC(=O)[C@H](CCCCN)NC(=O)[C@@H](NC(=O)[C@H](CCC(N)=O)NC(=O)[C@H](CCCNC(=N)N)NC(=O)[C@H](CO)NC(=O)[C@H](Cc1ccc(O)cc1)NC(=O)[C@H](CC(C)C)NC(=O)[C@H](CCCCN)NC(=O)[C@H](Cc1c[nH]cn1)NC(=O)[C@H](CC(C)C)NC(=O)[C@H](CCC(N)=O)NC(=O)[C@H](CCC(=O)O)NC(=O)[C@H](CC(C)C)NC(=O)[C@H](Cc1ccc(O)cc1)NC(=O)[C@H](CCCNC(=N)N)NC(=O)[C@@H](NC(=O)[C@@H](N)CC(=O)O)[C@@H](C)O)[C@@H](C)CC)[C@@H](C)CC)C(=O)N[C@@H](CCCCN)C(=O)N[C@@H](Cc1c[nH]c2ccccc12)C(=O)N[C@@H](CCCCN)C(=O)N[C@@H](CCCCN)C(N)=O
B3: Hel2B-Pen (peptide)
peptide: LDTRYLEQLHKLYSRQIKIWFPNRR[Nle]KWKK-NH2
modifications: N-terminus assumed
SMILES: CCCC[C@H](NC(=O)[C@H](CCCNC(=N)N)NC(=O)[C@H](CCCNC(=N)N)NC(=O)[C@H](CC(N)=O)NC(=O)[C@@H]1CCCN1C(=O)[C@H](Cc1ccccc1)NC(=O)[C@H](Cc1c[nH]c2ccccc12)NC(=O)[C@@H](NC(=O)[C@H](CCCCN)NC(=O)[C@@H](NC(=O)[C@H](CCC(N)=O)NC(=O)[C@H](CCCNC(=N)N)NC(=O)[C@H](CO)NC(=O)[C@H](Cc1ccc(O)cc1)NC(=O)[C@H](CC(C)C)NC(=O)[C@H](CCCCN)NC(=O)[C@H](Cc1c[nH]cn1)NC(=O)[C@H](CC(C)C)NC(=O)[C@H](CCC(N)=O)NC(=O)[C@H](CCC(=O)O)NC(=O)[C@H](CC(C)C)NC(=O)[C@H](Cc1ccc(O)cc1)NC(=O)[C@H](CCCNC(=N)N)NC(=O)[C@@H](NC(=O)[C@H](CC(=O)O)NC(=O)[C@@H](N)CC(C)C)[C@@H](C)O)[C@@H](C)CC)[C@@H](C)CC)C(=O)N[C@@H](CCCCN)C(=O)N[C@@H](Cc1c[nH]c2ccccc12)C(=O)N[C@@H](CCCCN)C(=O)N[C@@H](CCCCN)C(N)=O
B4: Hel2A-2-Pen (peptide)
peptide: LDTRYLEQLHKLYRQIKIWFPNRR[Nle]KWKK-NH2
modifications: N-terminus assumed
SMILES: CCCC[C@H](NC(=O)[C@H](CCCNC(=N)N)NC(=O)[C@H](CCCNC(=N)N)NC(=O)[C@H](CC(N)=O)NC(=O)[C@@H]1CCCN1C(=O)[C@H](Cc1ccccc1)NC(=O)[C@H](Cc1c[nH]c2ccccc12)NC(=O)[C@@H](NC(=O)[C@H](CCCCN)NC(=O)[C@@H](NC(=O)[C@H](CCC(N)=O)NC(=O)[C@H](CCCNC(=N)N)NC(=O)[C@H](Cc1ccc(O)cc1)NC(=O)[C@H](CC(C)C)NC(=O)[C@H](CCCCN)NC(=O)[C@H](Cc1c[nH]cn1)NC(=O)[C@H](CC(C)C)NC(=O)[C@H](CCC(N)=O)NC(=O)[C@H](CCC(=O)O)NC(=O)[C@H](CC(C)C)NC(=O)[C@H](Cc1ccc(O)cc1)NC(=O)[C@H](CCCNC(=N)N)NC(=O)[C@@H](NC(=O)[C@H](CC(=O)O)NC(=O)[C@@H](N)CC(C)C)[C@@H](C)O)[C@@H](C)CC)[C@@H](C)CC)C(=O)N[C@@H](CCCCN)C(=O)N[C@@H](Cc1c[nH]c2ccccc12)C(=O)N[C@@H](CCCCN)C(=O)N[C@@H](CCCCN)C(N)=O
B5: Hel2I-Pen (peptide)
peptide: DTRYLEQLH[Dab]LYRQIKIWFPNRR[Nle]KWKK-NH2
modifications: N-terminus assumed
SMILES: CCCC[C@H](NC(=O)[C@H](CCCNC(=N)N)NC(=O)[C@H](CCCNC(=N)N)NC(=O)[C@H](CC(N)=O)NC(=O)[C@@H]1CCCN1C(=O)[C@H](Cc1ccccc1)NC(=O)[C@H](Cc1c[nH]c2ccccc12)NC(=O)[C@@H](NC(=O)[C@H](CCCCN)NC(=O)[C@@H](NC(=O)[C@H](CCC(N)=O)NC(=O)[C@H](CCCNC(=N)N)NC(=O)[C@H](Cc1ccc(O)cc1)NC(=O)[C@H](CC(C)C)NC(=O)[C@H](CCN)NC(=O)[C@H](Cc1c[nH]cn1)NC(=O)[C@H](CC(C)C)NC(=O)[C@H](CCC(N)=O)NC(=O)[C@H](CCC(=O)O)NC(=O)[C@H](CC(C)C)NC(=O)[C@H](Cc1ccc(O)cc1)NC(=O)[C@H](CCCNC(=N)N)NC(=O)[C@@H](NC(=O)[C@@H](N)CC(=O)O)[C@@H](C)O)[C@@H](C)CC)[C@@H](C)CC)C(=O)N[C@@H](CCCCN)C(=O)N[C@@H](Cc1c[nH]c2ccccc12)C(=O)N[C@@H](CCCCN)C(=O)N[C@@H](CCCCN)C(N)=O
B6: Hel2-Pen (peptide)
peptide: LDTRYLEQLHQLYSRQIKIWFPNRR[Nle]KWKK-NH2
modifications: N-terminus assumed
SMILES: CCCC[C@H](NC(=O)[C@H](CCCNC(=N)N)NC(=O)[C@H](CCCNC(=N)N)NC(=O)[C@H](CC(N)=O)NC(=O)[C@@H]1CCCN1C(=O)[C@H](Cc1ccccc1)NC(=O)[C@H](Cc1c[nH]c2ccccc12)NC(=O)[C@@H](NC(=O)[C@H](CCCCN)NC(=O)[C@@H](NC(=O)[C@H](CCC(N)=O)NC(=O)[C@H](CCCNC(=N)N)NC(=O)[C@H](CO)NC(=O)[C@H](Cc1ccc(O)cc1)NC(=O)[C@H](CC(C)C)NC(=O)[C@H](CCC(N)=O)NC(=O)[C@H](Cc1c[nH]cn1)NC(=O)[C@H](CC(C)C)NC(=O)[C@H](CCC(N)=O)NC(=O)[C@H](CCC(=O)O)NC(=O)[C@H](CC(C)C)NC(=O)[C@H](Cc1ccc(O)cc1)NC(=O)[C@H](CCCNC(=N)N)NC(=O)[C@@H](NC(=O)[C@H](CC(=O)O)NC(=O)[C@@H](N)CC(C)C)[C@@H](C)O)[C@@H](C)CC)[C@@H](C)CC)C(=O)N[C@@H](CCCCN)C(=O)N[C@@H](Cc1c[nH]c2ccccc12)C(=O)N[C@@H](CCCCN)C(=O)N[C@@H](CCCCN)C(N)=O

These binders were tested against STAT3 (human, UniProt P40763 2-770, limits assumed) (assay: cell-based or functional assay).
Chain of STAT3 (P40763 2-770 limits assumed): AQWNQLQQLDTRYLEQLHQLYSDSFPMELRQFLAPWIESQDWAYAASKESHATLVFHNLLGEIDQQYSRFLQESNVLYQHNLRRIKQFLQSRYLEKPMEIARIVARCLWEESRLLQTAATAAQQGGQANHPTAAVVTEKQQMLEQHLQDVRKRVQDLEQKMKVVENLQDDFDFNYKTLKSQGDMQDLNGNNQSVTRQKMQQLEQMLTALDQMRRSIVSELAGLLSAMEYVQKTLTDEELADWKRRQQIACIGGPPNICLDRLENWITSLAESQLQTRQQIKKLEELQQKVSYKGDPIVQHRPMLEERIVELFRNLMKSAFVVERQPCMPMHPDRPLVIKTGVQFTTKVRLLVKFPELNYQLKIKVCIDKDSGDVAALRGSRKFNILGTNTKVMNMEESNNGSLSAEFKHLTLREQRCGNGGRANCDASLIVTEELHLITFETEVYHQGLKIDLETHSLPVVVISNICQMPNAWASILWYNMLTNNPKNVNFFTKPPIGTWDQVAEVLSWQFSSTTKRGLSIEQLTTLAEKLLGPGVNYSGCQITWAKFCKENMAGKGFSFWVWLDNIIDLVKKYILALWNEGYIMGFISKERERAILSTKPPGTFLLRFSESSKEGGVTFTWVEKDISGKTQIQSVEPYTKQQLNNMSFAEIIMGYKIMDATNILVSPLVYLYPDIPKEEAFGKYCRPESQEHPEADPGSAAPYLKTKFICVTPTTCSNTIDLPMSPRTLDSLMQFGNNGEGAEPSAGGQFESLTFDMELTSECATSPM

In order of falling “Activity, % of control (luciferase reporter, GAS or STAT3 element, MCF-7 cells)” value:
1. B2  100 % of control
2. B3  100 % of control
3. B4  71 % of control
4. B6  56 % of control
5. B5  53 % of control
6. B1  43 % of control
